Assay results reported in patent US11884710B2, “Peptide compounds and methods of use in wound healing” (priority 2013, dated 2024).

Legend:
[1] = system: P. aeruginosa (ATCC 27853); test: Mouse model of Pseudomonas (bacterial) keratitis; type: in vivo; conditions: 48 hours post-infection
Method: A circular wound was created on the mouse cornea by removing the epithelium and infected with 10^5 colony forming units (CFU) of P. aeruginosa (ATCC® 27853™ (American Type Culture Collection, Manassas, Va.)). Infected wounds were treated with saline (0.9% sodium chloride, vehicle control) or saline containing indicated concentrations of peptide every 15 minutes for 2 hours, then every 30 minutes for 3 hours on the first day. Infected wounds were treated twice on the second day and once on the third day. Mice were killed at 48 hours post-infection, and CFU/eye were quantified. The means were plotted and are representative of 5 to 9 mice per group. Mann Whitney test was performed for each group as compared to the saline control group. *P=0.014. In compound names such as BCC02-5RMP used herein, “R” represents arginine, and “MP” represents a small PEG molecule as defined elsewhere herein (such as, for example but not by way of limitation, “AEEP”).
(§1) A circular wound was created on the mouse cornea by removing the epithelium, and the wound was infected with 10^5 CFU of P. aeruginosa (ATCC® 27853™ (American Type Culture Collection, Manassas, Va.)). Infected wounds were treated with saline or saline containing indicated concentrations (2, 5, 10, and 20 mg/ml) of peptide every 30 minutes for 6 hours on the first day. Infected wounds were treated twice on the second day and once on the third day. Mice were killed at 48 hours post-infection, and the CFU/eye were quantified. The means are plotted and are representative of 5 mice per group. Mann Whitney test was performed for each group as compared to the saline control group. *P=0.015 and **P=0.097.
as §1, with “representative of 4 to 5 mice” for “representative of 5 mice”, “control group.” for “control group. *P=0.015 and **P=0.097.”
as §1, with “group. **P=0.0079 by” for “group.”, “test” for “test was performed for each group”, “group.” for “group. *P=0.015 and **P=0.097.”
A circular wound (2 mm) was created on the mouse cornea by removing the epithelium and infecting the wound with 10^5 CFU of P. aeruginosa (ATCC® 27853™ (American Type Culture Collection, Manassas, Va.)). Infected wounds were treated with saline or saline containing indicated concentrations of peptide every 15 minutes for 2 hours, then every 30 minutes for 3 hours on the first day. […] Mice were killed at 48 hours post-infection, and the colony forming units per eye (CFU/eye) were quantified. […]

[2] = system: human corneal epithelial cell (HCEC); test: HCEC chemotaxis, modified Boyden chemotaxis chamber; type: cell-based; conditions: rCAP37 250 ng/ml; positive control for the peptide
Method: The effect of buffer control (0.1% BSA in Gey's buffer), heparin binding-epidermal growth factor (HB-EGF, 50 ng/ml), recombinant CAP37 (rCAP37, 250 ng/ml), 120-146QH (10^−12M, 10^−10 M, 10^−8 M, 10^−6M, and 10^−4M,) and 120-146QR (10^−10M, 10^−8M, 10^−6M, and 10^−4M) on HCEC chemotaxis was determined by the modified Boyden chemotaxis chamber method. HCEC chemotaxis was measured in response to HB-EGF, rCAP37, and peptides 120-146QH (SEQ ID NO:29) and 120-146QR (SEQ ID NO:28) after incubation for 3 hours at 37° C. Chemotaxis is expressed as a percent migration. The buffer control (no chemoattractant) is arbitrarily assigned the value of 100% migration. Data are expressed as means±SEM and are calculated from 6 observations for each test point. **P<0.01 by Wilcoxon signed-rank test as compared to controls.
Chemotaxis: Chemotaxis assays were performed using the modified Boyden chemotaxis chamber assay. Peptide 120-146QH was used at 10^−4 M, 10^−6 M, 10^−8 M, 10^−10 M, and 10^−12 M, and peptide 120-146QR was used at 10^−4 M, 10^−6 M, 10^−8M, and 10^−10M.

[3] = system: HCEC monolayers; test: In vitro scratch assay of HCEC monolayers; type: cell-based, human
Method: (A) HCECs were grown to confluency and scratched using a 10 μl pipette tip. Scratched HCEC monolayers were treated with HB-EGF (250 ng/ml) or rCAP37 (25-2000 ng/ml), or were left untreated in basal Keratinocyte Serum Free Medium (KSFM). Wound closure was monitored at 0, 18, 24, and 48 hours utilizing a camera-equipped inverted microscope. The histogram represents data acquired at 48 hours, and the values are the mean±SEM of the percentage of wound closure. The data are representative of at least 4 independent experiments. The percentage of wound closure in treated monolayers was compared to untreated controls by one-way analysis of variance (ANOVA) followed by Dunnett's multiple comparison test, **P<0.01, *P<0.05. (B) Representative images of scratched monolayers treated with buffer control, HB-EGF, and rCAP37 (at 25, 100, and 250 ng/ml) are shown for each time point. Images were taken at 20× objective.
In vitro model of wound healing: An in vitro scratch assay was used in order to determine the ability of rCAP37 to facilitate corneal wound healing. Human corneal epithelial cells were cultured as described above until they reached a confluent monolayer. Each monolayer was scratched using a 10 μl pipette tip to create two perpendicular lines. Monolayers were treated with heparin binding-epidermal growth factor (HB-EGF, 250 ng/ml; Becton Dickinson), rCAP37 (25-2000 ng/ml), or basal KSFM (Gibco). Wound closure was monitored at 0, 18, 24, and 48 hours utilizing a camera-equipped inverted microscope (TE2000-E; Nikon, Melville, N.Y.). Time-lapse images of in vitro wound closure were obtained using a camera-equipped inverted microscope (TE2000-E; Nikon) from […]. HCEC monolayers were treated with HB-EGF, rCAP37, and basal KSFM as described above. The width of each scratch was quantitated using ImageJ software (US National Institutes of Health, Bethesda, Md.). Results are presented as the percentage of wound closure.

“GTRCQVAGWGSWHSGGRLSRFPRFVNV (derivative of peptide of CAP37 protein) [Peptide 120-146WH]” was tested, and the “CFU/eye vs saline, in words” value ([1]; topical doses of 10 and 20 mg/ml) was “significantly reduced the CFU/eye”.

With “GTRCQVAGWGSWRSGGRLSRFPRFVNV (derivative of peptide of Homo sapiens CAP37 protein) [Peptide 120-146WR]” the “infection (CFU/eye) vs saline, in words” value ([1]; topical 5, 10, and 20 mg/ml) was “significantly reduced infection”.

B1: CAP37: cationic antimicrobial protein of Mr 37 kDa; recombinant CAP37 produced in human embryonic kidney (HEK) 293 cells (protein)
chain: IVGGRKARPRQFPFLASIQNQGRHFCGGALIHARFVMTAASCFQSQNPGVSTVVLGAYDLRRRERQSRQTFSISSMSENGYDPQQNLNDLMLLQLDREANLTSSVTILPLPLQNATVEAGTRCQVAGWGSQRSGGRLSRFPRFVNVTVTPEDQCRPNNVCTGVLTRRGGICNGDGGTPLVCEGLAHGVASFSLGPCGRGPDFFTRVALFRDWIDGVLNNPGP
With B1 the “migration of HCECs vs buffer control, in words” value [2] was “significant increase in migration”, the percentage wound closure ([3]; CAP37 250 ng/ml, at 18 hours) was roughly 71% and the percentage wound closure ([3]; CAP37 500 ng/ml) was “approximately 62%”. For the same molecule, the “time to complete closure of scratch wounds” value ([3]; HB-EGF 250 ng/ml, CAP37 250 ng/ml) was 24 to 48 h.
